According to IntAct's records for PubMed 29039417:

B1: BBSome complex member BBS5 (Homo sapiens), Q8N3I7 (parent)
chain: MSVLDALWEDRDVRFDLSAQQMKTRPGEVLIDCLDSIEDTKGNNGDRGRLLVTNLRILWHSLALSRVNVSVGYNCILNITTRTANSKLRGQTEALYILTKCNSTRFEFIFTNLVPGSPRLFTSVMAVHRAYETSKMYRDFKLRSALIQNKQLRLLPQEHVYDKINGVWNLSSDQGNLGTFFITNVRIVWHANMNDSFNVSIPYLQIRSIKIRDSKFGLALVIESSQQSGGYVLGFKIDPVEKLQESVKEINSLHKVYSASPIFGVDYEMEEKPQPLEALTVEQIQDDVEIDSDGHTDAFVAYFADGNKQQDREPVFSEELGLAIEKLKDGFTLQGLWEVMS
partner: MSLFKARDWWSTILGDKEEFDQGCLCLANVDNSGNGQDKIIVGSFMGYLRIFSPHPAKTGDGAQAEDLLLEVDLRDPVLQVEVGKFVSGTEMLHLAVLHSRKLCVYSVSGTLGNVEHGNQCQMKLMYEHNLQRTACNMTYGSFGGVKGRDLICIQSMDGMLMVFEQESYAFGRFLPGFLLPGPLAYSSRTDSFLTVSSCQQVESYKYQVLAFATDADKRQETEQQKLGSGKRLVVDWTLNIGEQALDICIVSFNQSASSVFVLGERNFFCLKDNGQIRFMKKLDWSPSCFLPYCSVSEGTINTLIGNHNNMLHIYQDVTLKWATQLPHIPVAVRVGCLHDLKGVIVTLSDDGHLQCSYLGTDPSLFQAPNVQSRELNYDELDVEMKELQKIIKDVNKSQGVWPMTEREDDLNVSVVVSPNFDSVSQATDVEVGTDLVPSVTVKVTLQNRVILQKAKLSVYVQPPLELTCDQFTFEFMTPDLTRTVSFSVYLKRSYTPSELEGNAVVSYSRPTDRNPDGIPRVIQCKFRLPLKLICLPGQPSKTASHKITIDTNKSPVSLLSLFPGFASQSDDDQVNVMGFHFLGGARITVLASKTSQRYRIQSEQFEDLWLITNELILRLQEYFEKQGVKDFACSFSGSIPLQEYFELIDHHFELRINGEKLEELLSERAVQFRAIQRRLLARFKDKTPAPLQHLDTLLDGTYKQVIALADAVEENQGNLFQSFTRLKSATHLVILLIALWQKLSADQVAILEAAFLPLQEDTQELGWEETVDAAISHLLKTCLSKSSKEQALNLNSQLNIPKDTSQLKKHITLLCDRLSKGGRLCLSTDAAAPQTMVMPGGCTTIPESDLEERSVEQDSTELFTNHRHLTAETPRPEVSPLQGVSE

Variants of: B1
Conditions: with pthb1_human BBS9, Q3SYG4

effect of a mutation on the interaction	Variant
with no effect	Q334E
with no effect	Q334K
with no effect	Q334A
with no effect	F331K
disrupting interaction strength	F331S
with no effect	L336E
with no effect	L336K
with no effect	L336A
with no effect	L333A
with no effect	L333K
with no effect	L333E
with no effect	S341E
with no effect	S341A
with no effect	E338A
with no effect	E338K
with no effect	M340E
with no effect	M340K
with no effect	M340A
with no effect	W337K
with no effect	W337A
with no effect	W337E
with no effect	T332K
with no effect	T332A
with no effect	T332E
with no effect	V339K
with no effect	V339A
with no effect	V339E
with no effect	G335A
with no effect	G335K
with no effect	G335E

Second part, the variant before the results:

Variant	effect of a mutation on the interaction
E319K	with no effect
E319A	with no effect
R312A	with no effect
R312E	with no effect
R312K	with no effect
V315E	with no effect
V315A	with no effect
V315K	with no effect
L327A	with no effect
L327K	with no effect
L327E	with no effect
D311K	with no effect
D311E	with no effect
D311A	with no effect
Q310K	with no effect
Q310E	with no effect
Q310A	with no effect
P314A	with no effect
P314K	with no effect
P314E	with no effect
G330A	with no effect

Variant	effect of a mutation on the interaction
G330E	with no effect
G330K	with no effect
F331E	disrupting interaction strength
F331A	with no effect
A323K	with no effect
A323E	disrupting interaction strength
K326A	with no effect
K326E	with no effect
S317K	with no effect
S317A	with no effect
S317E	with no effect
E313A	with no effect
E313K	with no effect
E325K	with no effect
E325A	with no effect
F316A	with no effect
F316K	with no effect
F316E	with no effect
I324K	with no effect
I324A	with no effect
I324E	with no effect

Variant	effect of a mutation on the interaction
D329A	with no effect
D329K	with no effect
D329E	with no effect
L320A	with no effect
L320K	with no effect
L320E	with no effect
L322E	with no effect
L322K	disrupting interaction strength
L322A	with no effect
G321K	with no effect
G321E	with no effect
G321A	with no effect
Q309K	disrupting interaction strength
Q309E	with no effect
Q309A	with no effect
E318K	with no effect
E318A	with no effect
K308E	with no effect
K328A	with no effect
K328E	with no effect
